# Values quoted from earlier work, collected in article PMC5326574.
# What was measured:
# ERK2 (Homo sapiens) = ERK2 (Homo sapiens) (UniProt P28482); test: NMR
# [1] = target: Prolactin (second site) (Homo sapiens) (UniProt P01236)
# Prolactin (Homo sapiens) = Prolactin (Homo sapiens) (UniProt P01236); test: SPR
# Chain of UniProt P28482 (P28482 2-360): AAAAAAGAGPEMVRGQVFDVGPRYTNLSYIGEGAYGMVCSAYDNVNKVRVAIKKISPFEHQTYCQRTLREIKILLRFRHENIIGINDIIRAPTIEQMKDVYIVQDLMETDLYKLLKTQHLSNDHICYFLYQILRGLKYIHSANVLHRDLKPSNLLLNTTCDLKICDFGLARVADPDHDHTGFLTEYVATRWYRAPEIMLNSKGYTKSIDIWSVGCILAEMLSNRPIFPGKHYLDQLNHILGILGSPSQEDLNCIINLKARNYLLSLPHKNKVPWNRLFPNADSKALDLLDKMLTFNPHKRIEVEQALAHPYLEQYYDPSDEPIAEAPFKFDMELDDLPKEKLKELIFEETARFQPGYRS
Substance,Kd (ERK2 (Homo sapiens)) [µM],Kd [1] [µM],Kd (Prolactin (Homo sapiens)) [µM]
NHE1 C-terminal distal tail (NHE1cdt) (from UniProt P19634),30,–,–
Prolactin receptor ECD (from UniProt P16471),–,33,0.006
